Results: PMC4865804

Assays:
[1] = biological target: extrinsic tenase complex (FVIIa/TF_(PCPS)), the [E] complex (human) (UniProt P13726)
[2] = biological target: [ES] complex (FVIIa/TF_(PCPS)/FX) (UniProt P13726); assay: enzyme inhibition kinetics (mixed-type fit, secondary plots); FX activation by FVIIa (10 pM) in complex with recombinant human TF (Innovin); FX 0.58-50 nM; ringhalexin 50-150 nM; 50 mM HEPES pH 7.4, 140 mM NaCl, 5 mM CaCl2, 1% BSA, 37 °C; FXa read by hydrolysis of 500 μM S-2222 at 405 nm
[3] = biological target: extrinsic tenase complex (FVIIa/TF_(PCPS)), the [E] complex (human) (UniProt P13726); assay: as above

B1: ringhalexin (Ringhals extrinsic tenase complex inhibitor) (natural protein)
chain: RLCLSDYSIFSETIEICPEGHNYCFKKFPKGITRLPWVIRGCAATCPKPEAQVYVDCCARDKCNR
B1 was tested, and the inhibition of FX activation by the reconstituted extrinsic tenase complex (FXa formed, measured by S-2222 hydrolysis); ringhalexin 100 pM to 3 μM, FX 30 nM [1] was 124 nM, the Ki' (inhibitor constant for the [ES] complex) [2] was 152 nM and the Ki [3] was 84.2 nM.
